This is an account of results in US20200332371A1 (UNIVERSITY OF CHICAGO, published 2020).

Assay [1] has as its target SspB-C-term (bacteriophage T7) (UniProt P0AFZ3). Briefly: cell-based or functional assay.
Assay [2] deals with FKBP-C-term (bacteriophage T7) (UniProt P62942). Briefly: cell-based or functional assay.
Assay [3] deals with T1, C-term RNAP (WT) (bacteriophage T7, UniProt P00573 180-883).
T1 construct: C-terminal half of T7 RNAP split at position 179, without a fusion partner; expressed in E. coli; A start codon for the unfused half is not described; also called C-terminal split RNAP; C-terminal T7 RNAP
T1 sequence (P00573 180-883 limits assumed): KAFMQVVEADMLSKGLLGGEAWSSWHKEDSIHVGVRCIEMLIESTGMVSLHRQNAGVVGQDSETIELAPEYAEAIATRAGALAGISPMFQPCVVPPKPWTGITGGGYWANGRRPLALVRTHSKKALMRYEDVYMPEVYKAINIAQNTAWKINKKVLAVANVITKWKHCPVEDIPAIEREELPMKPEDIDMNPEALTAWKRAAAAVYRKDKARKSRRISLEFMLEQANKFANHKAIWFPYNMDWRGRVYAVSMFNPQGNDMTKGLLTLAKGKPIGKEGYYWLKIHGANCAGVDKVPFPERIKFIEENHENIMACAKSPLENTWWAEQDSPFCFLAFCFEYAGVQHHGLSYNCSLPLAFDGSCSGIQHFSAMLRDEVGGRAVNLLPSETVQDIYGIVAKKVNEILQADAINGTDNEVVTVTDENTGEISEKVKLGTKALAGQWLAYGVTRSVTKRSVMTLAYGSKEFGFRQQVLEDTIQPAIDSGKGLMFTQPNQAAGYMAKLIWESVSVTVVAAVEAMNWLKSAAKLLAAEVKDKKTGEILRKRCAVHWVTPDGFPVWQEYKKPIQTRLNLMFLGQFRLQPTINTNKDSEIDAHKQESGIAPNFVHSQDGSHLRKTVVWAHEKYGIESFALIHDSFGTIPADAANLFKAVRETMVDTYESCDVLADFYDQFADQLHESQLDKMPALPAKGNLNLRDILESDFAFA
Briefly: E. coli luciferase transcription reporter (split T7 RNAP complementation). The text has this: (§1) In vivo transcription assays of split RNAPs. N- and C-terminal halves of the RNAP were cloned into expression vectors, with the N-terminal RNAP under a constitutive promoter and the C-terminal RNAP under the arabinose-inducible promoter (Supplementary FIG. 1). S1030 cells (Carlson, et al., 2014) were transformed by electroporation with three plasmids: (i) an N-terminal RNAP expression plasmid, (ii) a C-terminal expression plasmid, and (iii) a reporter plasmid that encodes luciferase under control of the T7 promoter. The transformed cells were then plated onto agar plates (15 g/L in LB) with 50 μg/mL carbenicillin, 50 μg/mL spectinomycin, 33 μg/mL chloramphenicol, and 10 mM glucose. […] After growth with shaking at 37° C. for 2 h, 150 μL of each culture was transferred to a 96-well black wall, clear bottom plate (Costar), and luminescence and OD600 was measured on a Synergy H4 Hybrid Reader (BioTek). The data were analyzed by dividing the luminscence values by the background-corrected OD600 value, then subtracting out the background from the reporter vector alone. All values were then normalized to the wild-type split RNAP fused to ZA and ZB (data shown in FIG. 1d), which was assigned an arbitrary value of 100, allowing the values from each luminescence plot to be compared to one another. […]

Assay [4] addresses T2, C-ZB (bacteriophage T7, UniProt P00573 180-883).
T2 construct: also called C-terminal RNAP fused to ZB; ZB-fused C-terminal RNAP
The description is as above.
Source text: as §1

Assay [5] deals with T2, C-ZB. Briefly: cell-based or functional assay.

T2 sequence (P00573 180-883, tags or fused parts left off): as the sequence (P00573 180-883 limits assumed) above
SspB-C-term (bacteriophage T7), sequence (P0AFZ3 6-116, tags or fused parts left off): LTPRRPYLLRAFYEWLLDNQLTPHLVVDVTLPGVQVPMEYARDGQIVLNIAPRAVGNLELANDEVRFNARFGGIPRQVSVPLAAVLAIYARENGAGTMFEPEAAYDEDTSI
FKBP-C-term (bacteriophage T7), sequence (P62942 1-108, tags or fused parts left off): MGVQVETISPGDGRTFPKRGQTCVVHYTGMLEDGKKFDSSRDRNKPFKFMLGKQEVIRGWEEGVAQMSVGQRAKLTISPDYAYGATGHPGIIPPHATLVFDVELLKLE

Turning to N-term-iLID, the transcriptional output (luciferase reporter, E. coli), blue LED light against dark in assay [1] came to 26 fold.
Turning to “N-term-FRB (from UniProt P42345 2021-2113)”, in assay [2], the RNA synthesis in the in vivo luciferase transcription reporter assay (E. coli), with rapamycin is 340 fold.

B1: N-term RNAP (WT) (enzyme)
chain: MNTINIAKNDFSDIELAAIPFNTLADHYGERLAREQLALEHESYEMGEARFRKMFERQLKAGEVADNAAAKPLITTLLPKMIARINDWFEEVKAKRGKRPTAFQFLQEIKPEAVAYITIKTTLACLTSADNTTVQAVASAIGRAIEDEARFGRIRDLEAKHFKKNVEEQLNKRVGHVYK
notes: N-terminal half of T7 RNAP split at position 179, without a fusion partner; expressed in E. coli; also called N-terminal split RNAP; N-terminal T7 RNAP
With B1, the binding result in assay [3] and in assay [4] was “binds” each time.

B2: N-ZA (other)
chain: MNTINIAKNDFSDIELAAIPFNTLADHYGERLAREQLALEHESYEMGEARFRKMFERQLKAGEVADNAAAKPLITTLLPKMIARINDWFEEVKAKRGKRPTAFQFLQEIKPEAVAYITIKTTLACLTSADNTTVQAVASAIGRAIEDEARFGRIRDLEAKHFKKNVEEQLNKRVGHVYKGGSGSGSSALKKELQANKKELAQLKWELQALKKELAQ
Take B2: the “transcription (luciferase reporter under the T7 promoter, E. coli)” value in assay [5] was roughly 5 fold.
